Experiments:
IL-26 [1] = molecular target: T1, IL-26 (Homo sapiens, UniProt Q9NPH9); assay: ICAM-1 expression analysis of COLO205 (neutralizing activity of IL-26); assay type: cell-based; parameters: host or cells: added exogenously to COLO205 cells; conditions: COLO205, recombinant human IL-26 monomer 20 ng/mL, 24 hours, flow cytometry (MFI)
T1 sequence (Q9NPH9 22-171): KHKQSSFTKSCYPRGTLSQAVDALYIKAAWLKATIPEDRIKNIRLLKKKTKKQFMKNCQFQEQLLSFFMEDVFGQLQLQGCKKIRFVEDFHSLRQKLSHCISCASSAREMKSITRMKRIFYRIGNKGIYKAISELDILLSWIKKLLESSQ
Experimental: COLO205 was seeded at 5×10^4 cells/well in a 96-well flat bottom plate, and stimulated with recombinant human IL-26 monomer (20 ng/mL) in the presence or absence of control human IgG or anti-human IL-26 antibody. After 24 hours of culture, the cells were collected and washed with ice-cold PBS (FCM buffer) containing 1% FBS and 0.1% sodium azide. Thereafter, a solution prepared by diluting a PE-labeled mouse anti-human ICAM-1 monoclonal antibody (clone 15.2, catalog number 50-0549-T100) of Bay bioscience (Kobe, Japan) or a PE-labeled mouse Igl,k isotype control monoclonal antibody (clone MOPC-21, catalogue number 400114) of BioLegend with FCM buffer to 5 μg/mL, was added at 50 μL/sample, and the mixture was allowed to stand at 4° C. for 25 minutes. Thereafter, the cells were washed with ice-cold FCM buffer, then measured with FACSCalibur, and the obtained data was analyzed with FlowJo.

[2] = Heterogeneous chronic GVHD model (NOG mice transplanted with human umbilical cord blood mononuclear cells); assay type: in vivo, mouse; conditions: for lung histopathology (inflammatory cell infiltration, fibrogenesis, collagen): eight weeks after transplantation, H&E and Azan-Mallory staining, FIG. 60
Experimental: On day −1, NOG mice were irradiated with a sublethal dose (100 cGy). On day 0, 5×10^6 human umbilical cord blood mononuclear cells were transplanted from the tail vein of NOG mice. Survival of the mice was assessed daily and body weight was measured twice a week. In an antibody treatment experiment, the control human IgG or anti-human IL-26 monoclonal antibody (the mouse antibody m69-10 and the humanized antibody h69-10A) was administered from day +28 of transplantation when clinical signs/symptoms of mild GVHD began to appear. The antibody solution was adjusted to a concentration of 1 mg/mL with sterile PBS, and 200 μL (200 μg) of the antibody solution per mouse was intraperitoneally injected twice a week. On day +56 after transplantation, the mice were sacrificed, and the skin, lung, liver, and large intestine were collected.
NOG mice were dissected, and then the skin, lung, liver, and large intestine on the back were excised, fixed in 10% formalin solution (Wako) at room temperature, and embedded in paraffin. Thereafter, a section having a thickness of 5 μm was prepared and placed on a glass slide, and stained with hematoxylin and eosin (H&E). In addition, in order to confirm the proliferation of collagen fibers, Azan-Mallory staining was performed. Images of the optical microscope were taken with an Olympus BX41 microscope (OLYMPUS, Tokyo, Japan) connected with an Olympus digital camera DP25, and CellSens software was used.

IL-26 [3] = molecular target: T1, IL-26; assay: MTT assay of HUVECs stimulated with IL-26 (neutralizing activity of IL-26); assay type: cell-based; parameters: purchased R&D Systems; host or cells: added exogenously to HUVECs; conditions: HUVECs, IL-26 10 ng/mL, 48 hours, MTT assay
Experimental: Human and mouse breast cancer cells (1×10^4) were cultured in 10% FCS containing RPMI1640 medium on a 96-well flat bottom plate (Corning, Tewksbury, MA) at 37° C. for 24 hours, and then stimulated with IL-26 for 48 hours in the presence or absence of EGFR-TKI (gefitinib or erlotinib) at various concentrations, a signal inhibitor, and a neutralizing antibody. HUVECs were seeded in a 96-well flat bottom plate at 5×10^3 cells/well in a 2% FBS-containing EGM medium in which growth factors were reduced by half, and cultured at 37° C. for 12 hours. Thereafter, the medium was aspirated, and a recombinant human IL-26 dimer was adjusted to a final concentration of 10 ng/mL in a 2% FBS-containing EGM medium containing no growth factors, and added to the cells. The stimulation was started in the presence or absence of control human IgG and anti-human IL-26 antibodies, and the cells were cultured for 48 hours. Thereafter, a concentration of 20 μl or 1/10 of a 5 mg/ml MTT solution (Tetrazolium monosodium salt, WST-8) was added to each well, and the plate was allowed to stand for 1 hour. The absorbance at 450 nm/595 nm was measured using Microplate Reader (Bio-Rad, Hercules, CA) and data was analyzed with Microplate Manager 6 software (Bio-Rad).

IL-26 [4] = molecular target: T1, IL-26; assay: ELISA of antigen binding to human IL-26; parameters: purchased R&D Systems 1375-IL/CF; conditions: plates coated with 0.5 μg/ml human IL-26 monomer; calculated using GraphPadPrism
Experimental: The antigen binding of purified Ch69-10-IgG1, Hu69-10A-IgG1, and Hu69-10B-IgG1 was analyzed by ELISA. ELISA plates were coated overnight at 4° C. with the addition of 0.5 μg/ml human IL-26 (recombinant human IL-26/AK155 monomer, Cat #1375-IL/CF, R&D Systems, Minneapolis, MN) at 100 μl/well in 0.2 M sodium carbonate buffer (pH 9.4). Wells were washed with the wash buffer and blocked with the ELISA buffer. Subsequently, 100 μl/well of test antibody (mouse 69-10, Ch69-10-IgG1, Hu69-10A-IgG1, or Hu69-10B-IgG1) serially diluted 2-fold in RPMI medium starting at 5 μg/ml was added to measure a binding with IL-26. After incubation at room temperature for 1 hour and washing the plates with a wash buffer, a 1/2,000-diluted HRP-conjugated goat anti-human kappa chain polyclonal antibody (Bethyl Laboratories) (for Ch69-10-IgG1, Hu69-10A-IgG1 and Hu69-10B-IgG1) or a 1/2,000-diluted HRP-labeled goat anti-mouse kappa chain polyclonal antibody (Bethyl Laboratories) (for mouse 69-10) in ELISA buffer was added at 100 μl/well to detect bound antibodies. After incubation at room temperature for 30 min and washing with the wash buffer, 100 μl/well of ABTS substrate (Sigma Aldrich) was added to start color development and 100 μl/well of 2% oxalic acid was added to stop the color development. The absorbance was measured at 405 nm.

[5] = 200 μg per mouse i.p. twice a week from day 28, data not shown

B1: 69-10: mouse anti-human IL-26 monoclonal antibody, clone 69-10, from deposited hybridoma (antibody, V domains shown)
VH: QVTLKESGPGILKPSQTLSLTCSFSGFSLSTSGMGVGWIRQPSGKGLEWLAHIWWDDDKYYNPSLKSQLTISKDTSRNQVFLKITSVDTADTATYYCVRGGITATHYYAMDYWGQGTSVTVSS
VL: DIQMTQSPASQSASLGESVTISCLASQTIGTWLSWYQQKPGKSPQLLIYAATSLADGVPSRFSGSGSGTKFSFKISSLQAEDFVSYYCQQLYSSPWTFGGGTKLEIK
- inhibition of IL-26-enhanced expression of ICAM-1 (IL-26 [1]): partially inhibited
- body weight loss [2, 5]: clearly reduced
- number of survival days [2, 5]: significantly prolonged
- lung histopathology (inflammatory cell infiltration, fibrogenesis, collagen) [2]: clearly reduced
- lung histopathology (inflammatory cell infiltration, fibrogenesis, collagen) ([2]; listed as m69-10): suppression of inflammatory cell infiltration, reduction of fibrogenesis, and reduction of collagen deposition were remarkably observed
- hair disorder (appearance) ([2]; eighth week of transplantation): slightly suppressed
- inhibitory effect of IL-26 (IL-26-promoted proliferation of HUVECs) (IL-26 [3]): not inferior to that of the commercially available goat anti-human IL-26 polyclonal antibody
- EC50 values (binding to human IL-26, ELISA) (IL-26 [4]): 0.34 µg/mL

Source: patent publication US20230398116A1, “Agent for reversing resistance to anticancer drugs” (Y'S AC CO., LTD., priority 2020, published 2023)
